From publication PMC7617061 come the findings set out here.

In the data set the target is U1-C zinc finger (UniProt P09234). Kind of data set: NMR titration. The conditions noted are these: pseudouridine at U1 strand positions 5 and 6.
Sequence of UniProt P09234 (P09234 1-61): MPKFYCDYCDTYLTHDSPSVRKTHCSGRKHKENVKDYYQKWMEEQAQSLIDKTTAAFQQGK

Take “AUACUUACCUG / GGAGUAAGUCU [U1 snRNA 5'-end / SMN2 E7 5'-SS RNA duplex]”: the binding signal (fold affinity increase vs no SMN-C5) stood at 3.
